The supplement of paper PMC9170038

Test system: MS2 coat protein
Assay: apparent KD of MS2 coat protein; designed switch direction (-1 OFF switch, 1 ON switch): -1; higher = weaker reporter binding
In short: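 Normalised cluster fluorescence was curve-fitted, and each design's median over clusters is its apparent KD. Before this, SNAP-549-labelled MS2 coat protein was titrated from 0.7 or 1.5 nM, doubling to 3 µM, over RNA switches transcribed on Illumina chips by stalled E. coli RNA polymerase. Titrations had no input, 200 uM small-molecule ligand, or an oligonucleotide input, and steps lasted 0.8–1.5 h (lowest) to 10–20 min (highest).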

[1] = Eterna round: R95, input ligand: FMN 200 uM
[2] = Eterna round: R95, input ligand: microRNA oligo, concentration not stated
[3] = Eterna round: R95, input ligand: none
[4] = input ligand: microRNA oligo, concentration not stated

UAAAAGGAUGUCAGGAUAUGCGCUUGGGAUCAAGAGCAGAAGGGACAUGAGGAUCACCCAUGUAACGGUGCGAA [Oraninus] (puzzle: Brourd's mod of Exclusion 4)
apparent KD of MS2 coat protein [1]: 36.4 nM
apparent KD of MS2 coat protein [2]: 33.9 nM
apparent KD of MS2 coat protein [3]: 44.5 nM

GGUCAGAUGGUAGGAUAUCCAUAUCGAGUGACCCUUUCAUAACAUGAGGAUCACCCAUGUUGGUGGGAGAAGGGCCGUACGGCG [salish99_ExNG02_R04_019] (Eterna round: R96, puzzle: Exclusion NG 2)
apparent KD of MS2 coat protein (input ligand: FMN 200 uM): 17.2 nM
apparent KD of MS2 coat protein [4]: 14.4 nM
apparent KD of MS2 coat protein (input ligand: none): 22 nM

GCAUUUGAGCAGGAUAUAGCCUGAACAUAAUGGUUAGAAGGGCUCACAUGAGGAUCACCCAUGUGGUGUCCAAA [Inratete] (puzzle: Exclusion 6)
apparent KD of MS2 coat protein [1]: 76.4 nM
apparent KD of MS2 coat protein [2]: 15.3 nM
apparent KD of MS2 coat protein [3]: 15.6 nM

CCUCUACAUGAGGAUCACCCAUGUGAGGAUAUCAAAAUCAGGGCGGCUCCCUGACCCAUGAGAAGGUGCAUGGA [EX1 A.5] (Eterna round: R97, puzzle: Exclusion 1)
apparent KD of MS2 coat protein (input ligand: FMN 200 uM): 31 nM
apparent KD of MS2 coat protein (input ligand: none): 16.8 nM

GUCGUGCGGCUUUGCUGUACGAGUACAUGAGGAUCACCCAUGUAGGAUAUGGCACGCUUUGCGUGCCAGAAGGGCGUGCGUUGG [Excl-NG3-LRO10] (Eterna round: R96, puzzle: Exclusion NG 3)
apparent KD of MS2 coat protein (input ligand: FMN 200 uM): 35.1 nM
apparent KD of MS2 coat protein [4]: 21.5 nM
apparent KD of MS2 coat protein (input ligand: none): 28.4 nM

GGAAGGCGAGGAUAUACAAUGCCGGAAACGGCAGGCGUGAGACAUGAGGAUCACCCAUGUAGAAGGCGCGGAGA [AK-MS2ROC-r4-exclusion2-15] (Eterna round: R97, puzzle: Exclusion 2)
apparent KD of MS2 coat protein (input ligand: FMN 200 uM): 101 nM
apparent KD of MS2 coat protein (input ligand: none): 105 nM

AGCUGUGGCCGAGGAUAUCUAUCCAAAAUAACCGAAAUAUAAUCGGACAUGAGGAUCACCCAUGUAGAGAAGGCGGUCUCAGCA [Eli eng2 - 087] (Eterna round: R96, puzzle: Exclusion NG 2)
apparent KD of MS2 coat protein [4]: 18.6 nM

GCAGAAAGUGUAGGAUAUAUAAAUUAGCGGAAACGCAAUACAUGAGGAUCACCCAUGUUUCCUCAAUAGAAGGGCAAAAGCUGC [EXNG2 V2 e] (Eterna round: R96, puzzle: Exclusion NG 2)
apparent KD of MS2 coat protein (input ligand: FMN 200 uM): 88 nM
apparent KD of MS2 coat protein [4]: 37.9 nM
apparent KD of MS2 coat protein (input ligand: none): 79.8 nM

GGAUCGAGUGUGAGGAUAUGCAGGUCCUUGGAUCUGCAGAAGGCACAUGAGGAUCACCCAUGUGAUCAAGAUCC [Mat - Exclusion 4 - Eli Mod - D47] (Eterna round: R97, puzzle: Brourd's mod of Exclusion 4)
apparent KD of MS2 coat protein (input ligand: FMN 200 uM): 36.6 nM
apparent KD of MS2 coat protein (input ligand: none): 777 nM

UGUCAGAUGGUAGGAUAUCCAUAUCGAGUGUCCCUUUCCUAACAUGAGGAUCACCCAUGUCGGUGGGAGAAGGGCCGUAUGGUG [salish99_ExNG02_R04_034] (Eterna round: R96, puzzle: Exclusion NG 2)
apparent KD of MS2 coat protein (input ligand: FMN 200 uM): 12.5 nM
apparent KD of MS2 coat protein [4]: 11.5 nM
apparent KD of MS2 coat protein (input ligand: none): 14.1 nM

AAUAACAGAGGAUAUACUGUUUUAUGUGUUUAUUGUUUUAAACAUGAGGAUCACCCAUGUAGAAGGCUGAAUAA [JMF 17] (puzzle: Exclusion 2)
apparent KD of MS2 coat protein [2]: 23.4 nM

AUAAUAAUAUAGGAUAUCGAAUUAAUUAUUUAACGAGAAGGAUGAACAUGAGGAUCACCCAUGUGGUAUCAUGG [Mat - Exclusion 6 - JL Mod - D34] (puzzle: Exclusion 6)
apparent KD of MS2 coat protein [1]: 255 nM
apparent KD of MS2 coat protein [2]: 244 nM
apparent KD of MS2 coat protein [3]: 317 nM

GAGUGCUGAGGAUAUACAUGAGGAUCACCCAUGUGCUUCAGCUAGGAGACUAGCUUUGGUAGAAGGCAGUACUC [Mod of lroppy 23 - Jieux - Exclusion 3] (Eterna round: R97, puzzle: Exclusion 3)
apparent KD of MS2 coat protein (input ligand: FMN 200 uM): 49.4 nM
apparent KD of MS2 coat protein (input ligand: none): 14.2 nM

CAGUACAGAGGAUAUACAUGAGGAUCACCCAUGUGUUUCAGCUAGGAGACUAGCGAAAGUAGAAGGCUGUACUU [salish99_ex3_r4_002] (Eterna round: R97, puzzle: Exclusion 3)
apparent KD of MS2 coat protein (input ligand: FMN 200 uM): 23 nM
apparent KD of MS2 coat protein (input ligand: none): 11.3 nM

AGUACUAACACGAAAGUGUUAGUACUGUAGGUUUGUGUUACAUGAGGAUCACCCAUGUCCUCAUAAGCUCGUCUUGU [Mat - Sensor v3 - Turn-off var 2 - D96] (puzzle: Sensor v3, turn-off variant 2)
apparent KD of MS2 coat protein [1]: 380 nM
apparent KD of MS2 coat protein [2]: 152 nM
apparent KD of MS2 coat protein [3]: 368 nM

AGUAUGCGUGUCAGGAUAUCAAUGGCUCUACCCAAUGAGAAGGGACAUGAGGAUCACCCAUGUAUGAGCCUAAA [Zatelaveus] (puzzle: Brourd's mod of Exclusion 4)
apparent KD of MS2 coat protein [1]: 15.9 nM
apparent KD of MS2 coat protein [2]: 14.1 nM
apparent KD of MS2 coat protein [3]: 14.5 nM

AGUAGAUCUACGCUUGCGUGGAUCUGCUAUGCAGGUGUUACAUGAGGAUCACCCAUGUCCUCAUUUGCUCGUCUUAU [JL turnoff v2 99.14] (puzzle: Sensor v3, turn-off variant 2)
apparent KD of MS2 coat protein [1]: 133 nM
apparent KD of MS2 coat protein [2]: 356 nM
apparent KD of MS2 coat protein [3]: 138 nM

ACAAAGUGAGGAUAUACUAAAACCCUCAUACCCAAAAGGGAACAUGAGGAUCACCCAUGUAGAAGGCACAUAAU [Esmainleor] (puzzle: Exclusion 2)
apparent KD of MS2 coat protein [1]: 549 nM
apparent KD of MS2 coat protein [2]: 100 nM
apparent KD of MS2 coat protein [3]: 92.3 nM

CGAUGAGGAGUGAGGAUAUCGUGUUCGAAAGAACGUGAGAAGGCACAUGAGGAUCACCCAUGUGAACCUUGUCG [Omei Ex4B A10] (Eterna round: R97, puzzle: Brourd's mod of Exclusion 4)
apparent KD of MS2 coat protein (input ligand: FMN 200 uM): 22.5 nM
apparent KD of MS2 coat protein (input ligand: none): 15.8 nM

UAGCUUUAUGUUAGGAUAUUCGCGCAUAUACUGCCGAAGAAGGAACAUGAGGAUCACCCAUGUACACGCCUAUG [Eternabot (L1) Solution 60] (Eterna round: R97, puzzle: Brourd's mod of Exclusion 4)
apparent KD of MS2 coat protein (input ligand: FMN 200 uM): 81.1 nM
apparent KD of MS2 coat protein (input ligand: none): 20.9 nM

CUUAGACAUGAGGAUCACCCAUGUGAGGAUAUGAUGCGAAUAAGUAAGUAAUAAAGCAUCAGAAGGCACAUAUG [Mat - Mod of Hyphema D28] (puzzle: Exclusion 1)
apparent KD of MS2 coat protein [1]: 235 nM
apparent KD of MS2 coat protein [2]: 186 nM
apparent KD of MS2 coat protein [3]: 222 nM

UGGCUACAUGAGGAUCACCCAUGUCAGGAUAUGCCGUUAAAUUAACAUCAACAUACGGGUAGAAGGGACAGCGU [1st #6] (Eterna round: R97, puzzle: Exclusion 1)
apparent KD of MS2 coat protein (input ligand: FMN 200 uM): 43.5 nM
apparent KD of MS2 coat protein (input ligand: none): 41.7 nM

CCUAUGUUAGGAUAUCGGCAUCCCGGGCAGGUAGCCAGGACCGAGAAGGGACAUGAGGAUCACCCAUGUCAAAU [Eternabot (Original) Solution 4] (Eterna round: R97, puzzle: Exclusion 4)
apparent KD of MS2 coat protein (input ligand: FMN 200 uM): 15.9 nM
apparent KD of MS2 coat protein (input ligand: none): 19.1 nM

AAUAACAAGCAGAUCCUAAACAUGAGGAUCACCCAUGUGUUCGUCUUGUAAAGUACUAUCACGAAAGUGAUAGUACA (Eterna round: R97, puzzle: Sensor, turn-off variant 1)
apparent KD of MS2 coat protein (input ligand: FMN 200 uM): 68.7 nM
apparent KD of MS2 coat protein (input ligand: none): 66.2 nM

UAUAUAUAGUAAGGAUAUGUAUUUAGUUUAUAAACAGAAGGUACUGACAUGAGGAUCACCCAUGUUUUAGUGUGGGCAUGUAGA [JMF's solution 14] (Eterna round: R96, puzzle: Exclusion NG 1)
apparent KD of MS2 coat protein [4]: 71.2 nM

AUGAUGUUAGGAUAUCAUUGCCGGGUUUGAAAACACGGGAUUGAGAAGGAACAUGAGGAUCACCCAUGUGCCUC [EX4 C.9] (Eterna round: R97, puzzle: Exclusion 4)
apparent KD of MS2 coat protein (input ligand: FMN 200 uM): 118 nM
apparent KD of MS2 coat protein (input ligand: none): 27.5 nM

GGUACUCAAAGAGUACCAAUACGAACAUGAGGAUCACCCAUGUAGGAUAUGCUACUCAAAGAGUAGCAGAAGGAUAUGAUCCAU [Far Half Aptamer v13] (Eterna round: R96, puzzle: Exclusion NG 3)
apparent KD of MS2 coat protein [4]: 60.5 nM

UAAUGGACAGGAUAUACAUGAGGAUCACCCAUGUCGGCCGGUCCUGUUCUAAGAGCGAGUAGAAGGGUCACGUU [Eternabot (L1) Solution 4] (Eterna round: R97, puzzle: Exclusion 3)
apparent KD of MS2 coat protein (input ligand: FMN 200 uM): 11.6 nM
apparent KD of MS2 coat protein (input ligand: none): 11.9 nM

CGGUGUAGAGGAUAUACGUGGAUGUAAAUUCAUGAUAUUUUACAUGAGGAUCACCCAUGUAGAAGGCUAUAGCG [JR_Ex2_Sub078] (Eterna round: R97, puzzle: Exclusion 2)
apparent KD of MS2 coat protein (input ligand: FMN 200 uM): 74.2 nM
apparent KD of MS2 coat protein (input ligand: none): 229 nM

GCCGAGUGAGGAUAUACAUGAGGAUCACCCAUGUAAACACGAAAGCAAGUGUCCCUCAGUAGAAGGCGCCAGGA [Xeanonis] (puzzle: Exclusion 3)
apparent KD of MS2 coat protein [1]: 18.2 nM
apparent KD of MS2 coat protein [2]: 13.9 nM
apparent KD of MS2 coat protein [3]: 14 nM

GGUACUCAAAGAGUACCAAUACGAACAUGAGGAUCACCCAUGUAGGAUAUGCUACUCAAAGAGUAGCAGAAGGAUAUGAUCGAU [Far Half Aptamer v14] (Eterna round: R96, puzzle: Exclusion NG 3)
apparent KD of MS2 coat protein (input ligand: FMN 200 uM): 45.6 nM
apparent KD of MS2 coat protein [4]: 27.9 nM
apparent KD of MS2 coat protein (input ligand: none): 40.6 nM

UUUAUGUCAGGAUAUGAUUAGAUCUACUUUUGUAGAUCUAAUCAGAAGGGACAUGAGGAUCACCCAUGUUUUUU [Ex4 - 3 - 15] (puzzle: Exclusion 4)
apparent KD of MS2 coat protein [2]: 41.2 nM

CUUUUGUGAGGAUAUCAGUAGUAAAAAAAUAAAAUUAUUACUGAGAAGGCACAUGAGGAUCACCCAUGUUCCUC [salish99_ex4_r3_028] (puzzle: Exclusion 4)
apparent KD of MS2 coat protein [2]: 36.3 nM

AGUACUAUGCGAGCUGACUUGCGUAGUGCAGCAAGUGAAACAUGAGGAUCACCCAUGUCCUCAUUUGCUCGUCUUAU [Mat - Sensor v3 - Turn-off var 2 - D1] (puzzle: Sensor v3, turn-off variant 2)
apparent KD of MS2 coat protein [1]: 35.3 nM
apparent KD of MS2 coat protein [2]: 453 nM
apparent KD of MS2 coat protein [3]: 30.8 nM
